# According to publication PMC7596504, “Molecular mechanism of the MORC4 ATPase activation” (Nature Communications, 2020):
# “Also recorded” adds a separate entry of the source.
# B1: MORC4 E56A: mCherry-tagged full-length MORC4 E56A mutant, catalytically impaired ATPase domain (protein, UniProt Q8TE76 1-937, looked up, variant E56A)
# chain: MLLYRGAPAGPGAPGCGLARPGGGPQAFGIRLSTMSPRYLQSNSSSHTRPFSAIAALLDNAVDPDVSARTVFIDVEEVKNKSCLTFTDDGCGMTPHKLHRMLSFGFTDKVIKKSQCPIGVFGNGFKSGSMRLGKDALVFTKNGGTLTVGLLSQTYLECVQAQAVIVPIVPFNQQNKKMIITEDSLPSLEAILNYSIFNRENDLLAQFDAIPGKKGTRVLIWNIRRNKNGKSELDFDTDQYDILVSDFDTEEKMTGGVTSELPETEYSLRAFCGILYMKPRMKIFLRQKKVTTQMIAKSLANVEYDTYKPTFTNKQVRITFGFSCKNSNQFGIMMYHNNRLIKSFEKVGCQVKPTRGEGVGVIGVIECNFLKPAYNKQDFEYTKEYRLTINALAQKLNAYWKEKTSQDNFETSTVARPIPKVPDQTWVQCDECLKWRKLPGKIDPSMLPARWFCYYNSHPKYRRCSVPEEQELTDEDLCLSKAKKQEQTVEEKKKMPMENENHQVFSNPPKILTVQEMAGLNNKTIGYEGIHSPSVLPSGGEESRSPSLQLKPLDSSVLQFSSKYKWILGEEPVEKRRRLQNEMTTPSLDYSMPAPYRRVEAPVAYPEGENSHDKSSSERSTPPYLFPEYPEASKNTGQNREVSILYPGAKDQRQGSLLPEELEDQMPRLVAEESNRGSTTINKEEVNKGPFVAVVGVAKGVRDSGAPIQLIPFNREELAERRKAVESWNPVPYSVASAAIPAAAIGEKARGYEESEGHNTPKLKNQRELEELKRTTEKLERVLAERNLFQQKVEELEQERNHWQSEFKKVQHELVIYSTQEAEGLYWSKKHMGYRQAEFQILKAELERTKEEKQELKEKLKETETHLEMLQKAQVSYRTPEGDDLERALAKLTRLRIHVSYLLTSVLPHLELREIGYDSEQVDGILYTVLEANHILD
# modifications: full-length mCherry tag
# Assays:
# MORC4 = test: ATPase activity assay (EnzChek Phosphate Assay Kit); type: biochemical, human; details: listed as E56A mutant of MORC4
# Description: To determine whether MORC4 is catalytically active, we produced the ATPase domain of human MORC4 and examined its ability to hydrolyze ATP in enzymatic assays (Fig. 1a–c). Following incubation of the ATPase domain with ATP, 2-amino-6-mercapto-7-methylpurine ribonucleoside and nucleoside phosphorylase, the release of inorganic phosphate generated by the hydrolysis of ATP to ADP was monitored by measuring an increase in absorbance at 360 nm.
# The ATPase assays were performed using the EnzChek Phosphate Assay Kit (Invitrogen, item # E6646). The reactions were carried out on 1.0 µM of MORC4 His-ATPase or ATPaseCW (WT and mutants), in the presence and absence of 1 µM 601 DNA or 50 µM of unmodified H3 or H3K4me3 peptide (aa 1–12 of H3) in a buffer containing 50 mM Tris-HCl (pH 7.5), 150 mM NaCl, 1 mM MgCl2, 0.1 mM sodium azide, 200 µM MESG, and 1 U of PNP. In assay with the nucleosome, 0.5 µM of MORC4 ATPaseCW and 0.5 µM NCP167 (Activemotif) were used. The reaction was started by adding 2 mM ATP to the mixture at room temperature, and the release of inorganic phosphate was monitored by measuring the absorbance at 360 nm on a Nanodrop 2000c spectrophotometer (Thermo Scientific). In the presence of inorganic phosphate, produced by the hydrolysis of ATP to ADP, MESG is enzymatically converted to ribose 1-phosphate and […] by PNP, resulting in a shift in the wavelength absorbance from 330 nm for MESG to 360 nm for the product. The rate of ATP self-hydrolysis was measured in parallel. Error was calculated as the S.D. of at least three separate experiments (two in Fig. 4j).
# 601 DNA = test: EMSA with 601 DNA; type: binding; details: 147 bp 601 DNA 5 pmol, pH 7.5, 150 mM NaCl, 0.5 h on ice, listed as E56A mutant of MORC4
# Description: EMSA experiments were performed essentially as described. In brief, increasing amounts of WT or mutant CW or ATPaseCW cassette of MORC4 were incubated with 147 bp 601 DNA (5 pmol) or 50 ng of O’RangeRuler 5 bp ladder (Thermo Scientific) in a DNA-binding buffer containing 20 mM Tris-HCl (pH 7.5), 150 mM NaCl, 2.5 mM MgCl2, and 2 mM DTT for 0.5 h on ice. The reaction mixtures were loaded on 5% native polyacrylamide gels, and electrophoresis was performed in 0.2× Tris-borate-EDTA (TBE) buffer at 100 V for 1.2 h on ice. Gels were stained with SYBR Gold (Invitrogen).
# HEK293T cells [1] = test: MORC4 localization and nuclear bodies (confocal microscopy); type: cell-based; details: 127 cells quantified
# Description: WT mCherry-MORC4, mCherry-MORC4 E56A, mCherry-MORC4 W435A, mCherry-MORC4 E56A/W435A, mCherry-MORC4 K460A/R462A/R463A, or mCherry control plasmid were transfected into 2 million 293T-HEK cells seeded on 25 mm circular coverslips (Carolina Biological Supply Item#: 633057) in 10-cm-diameter tissue culture dish by Lipofectamine 3000 (Life Technology, L3000-075) following the manufacturer’s instructions. Two days after transfection, cells were stained with Hoechst […] for 30 min and imaged live on a ZeissAxiovert 200 M inverted microscope fitted with a ×40 oil objective. Images were acquired with Slidebook 6 software and exported for analysis in Image J.
# mCherry foci sizes were calculated using ImageJ image processing program (version 1.51) using the Analyze Particle tool. mCherry particle sizes were collected for MORC4 WT and MORC4 W435A transfected cells. Data were plotted with R (version 3.4.1) using ggplot2 (version 3.2.1). Cell size and mCherry foci count per cell were calculated using CellProfile cell image analysis software (version 3.1.5) to identify nuclei and mCherry foci, relate mCherry foci to nuclei containing them and measure the size of nuclei and number mCherry foci contained. Data were plotted with R (version 3.4.1) using ggplot2 (version 3.2.1).
# HEK293T cells [2] = test: Cell cycle analysis by flow cytometry; type: cell-based; details: 48-h overexpression of mCherry-tagged protein, EdU/PI; average of three independent experiments; control 34.5%
# Description: For DNA content analysis, 10^6 cells previously transfected with mCherry MORC4 constructs and labeled with 25 µM Ethynyl deoxyUridine (EdU) for 1 h in 100 µL were washed with PBS (NaCl 137 mM, KCl 2.7 mM, Na2HPO4 10 mM, KH2PO4 1.8 mM) and fixed in ice cold 70% ethanol overnight. Fixed cells were washed and resuspended in PBS containing 0.05% NP40 and incubated at room temperature for 30 min. Cells were again washed with PBS. Cells were resuspended in Alexa Fluor 647 click staining solution (100 mM Tris pH 7.6, 4 mM CuSO4, 3 µM AF647 azide, 100 mM Sodium Ascorbate) for 1 h. Following staining, cells were washed with PBS and then stained for total DNA content using 10 μg/mL propidium iodide (PI) and 0.2 mg/ml RNase A for 60 min before analysis on a FACScan instrument. Data were analyzed using FlowJo (Version 10) with cells gated to remove doublets. EdU vs PI plots were gated in quadrants to identify G1, early S, late S and G2/M cells. S phase fractions were summed for total S phase population. […]
molecule,measurement,setting,value
B1,catalytic (ATPase) activity of the protein,MORC4,catalytically impaired ATPase domain; also recorded: catalytically inactive
same,binding to 601 DNA,601 DNA,retains its DNA-binding activity; also recorded: binds DNA as WT MORC4
same,number of NBs compared to wild type,HEK293T cells [1],significant increase in number of mCherry foci per cell
same,size of NBs compared to wild type,HEK293T cells [1],significant decrease in mCherry foci size
same,number of NBs compared to wild type,HEK293T cells [1]; listed as E56A mutant of MORC4,notable increase in the number of NBs
same,size of NBs compared to wild type,HEK293T cells [1]; listed as E56A mutant of MORC4,decrease in the size of NBs
same,percent of cells in S phase,HEK293T cells [2],36.3%
